Data set [1] relates to NIH 3T3 cells. Briefly: Activation of resting serum-starved NIH 3T3 cells ([3H]thymidine incorporation). The data set is classed as cell-based. On the procedure:
FIGS. 6A and 6B show the activation of resting NIH 3T3 cells. In FIG. 6(a), one to four day serum-starved cells activated by serum, retinol, 14-HRR, and the peptide growth factors epidermal growth factor ("EGF") and platelet derived growth factor ("PDGF") are shown. […] NIH 3T3 cells were grown to confluence in Dulbecco's minimal essential medium ("DMEM") containing 10% fetal calf serum in 96-well microliter plates. All media were supplemented with 2 mM glutamine and 100 U/ml of penicillin/streptomycin. Cells were washed once with phosphate-buffered saline solution and incubated for one to four days in 200 μl/well of DMEM media/0.1% fetal calf serum ("starvation media"). On the indicated day, starvation media was replaced with 200 μl/well of insulin, transferrin, linoleic acid, bovine serum albumin ("ITLB") media, with or without fetal calf serum, retinoids, or peptide growth factors at the indicated concentrations. ITLB media is RPMI media (Gibco BRL, Grand Island, N.Y.) containing […] bovine serum albumin (1.2 mg/ml), linoleic acid (10^-6 M), bovine insulin (5 μg/ml), and transferrin (5 μg/ml). [^3 H]thymidine (1.2 μCi per well) was added at the beginning of the experiment, and the thymidine incorporation was determined after 24 h. […]
Cells starved for 4 days in DMEM/0.1% fetal calf serum were activated with 5% fetal calf serum, 2 μM retinol, or 2 μM 14-HRR, and the cumulative thymidine incorporation was determined at the indicated time points. Δcpm corresponds to the increase in [^3 H]thymidine incorporation in the two hour period before the time point shown. […]
Cells starved for 4 days in DMEM/0.1% fetal calf serum were activated with 5% fetal calf serum, 2 μM retinol, or 2 μM 14-HRR. […] The cumulative [^3 H]thymidine incorporation was determined after 24 hours. […]
Confluent NIH 3T3 cells were starved for 1 to 4 days in medium containing 0.1% serum. […] Activation was quantitated by measuring the [^3 H] thymidine incorporated into newly synthesized DNA during the subsequent 24 hours (FIG. 6A). […]

Data set [2] deals with T1, retinol dehydratase (Spodoptera frugiperda, UniProt Q26490).
T1 sequence (Q26490 1-351): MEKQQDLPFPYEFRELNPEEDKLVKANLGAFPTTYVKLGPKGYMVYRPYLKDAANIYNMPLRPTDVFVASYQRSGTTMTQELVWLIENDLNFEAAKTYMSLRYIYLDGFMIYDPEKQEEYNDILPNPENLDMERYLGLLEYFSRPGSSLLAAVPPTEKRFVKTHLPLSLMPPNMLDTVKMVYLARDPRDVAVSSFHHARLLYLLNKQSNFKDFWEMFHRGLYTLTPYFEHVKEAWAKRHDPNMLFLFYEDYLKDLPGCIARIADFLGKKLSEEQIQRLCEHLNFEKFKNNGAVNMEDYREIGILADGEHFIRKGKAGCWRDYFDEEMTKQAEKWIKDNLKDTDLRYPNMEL
Briefly: Fluorimetric titration of recombinant retinol dehydratase with retinol (direct binding, no cofactor). Conditions: recombinant enzyme; for number of (high affinity) binding sites per molecule: retinol titration. On the procedure:
Binding was monitored by following the fluorescence enhancement of retinol (excitation--330 nm; emission--480 nm, open circles). The fluorescence contribution of free retinol was determined by titration with retinol in the absence of protein (open squares), analyzed by linear regression analysis (dashed line) and subtracted from the titration data to give the corrected titration binding curve (closed circles). The data were fitted (solid line) using an equation derived from simple binding theory.
Retinol is an efficient fluorophore and its interactions with proteins are often accompanied by a marked increase in its fluorescence. This phenomenon reflects movement of retinol from the aqueous solution to a less polar and more restrictive environment within a protein binding site, and has been extensively used to monitor the binding of retinol to binding proteins, as described by Cogan et al., Eur. J. Biochem., 65:71-75 (1976); Ong et al., J. Biol Chem., 253:828-32 (1978); and Noy et al., Biochemistry, 30:6380-86 (1991), which are hereby incorporated by reference.
Recombinant retinol dehydratase (lμM) was titrated with retinol from a concentrated solution in ethanol (final ethanol concentration <2.0%). Binding was monitored by following the fluorescence enhancement of retinol (excitation--330 nm; emission--480 nm, open circles). The fluorescence contribution of free retinol was determined by titration with retinol in the absence of protein (FIG. 5B, open squares), analysed by linear regression analysis (FIG. 5B, dashed line) and subtracted from the titration data to give the corrected titration binding curve (FIG. 5B, closed circles). The data were fitted (FIG. 5B, solid line) using an equation derived from simple binding theory as described in Norris et al., Biochim Bioshys Acta, 1209:10-8 (1994), which is hereby incorporated by reference, to yield the number of binding sites (8%) and the equilibrium dissociation constant (Kd =9 nM).
The derived Kd should thus be considered an upper limit for the actual value. Nevertheless, it agreed with the Km, confirming retinol dehydratase has a high affinity binding site for free retinol.

For data set [3], the target named is T1, retinol dehydratase. Briefly: Retinol dehydratase assay ([3H]-retinol to [3H]-AR, HPLC radiomatic detection); kinetic studies. The class given is biochemical. The conditions noted are these: bacterially expressed recombinant enzyme. On the procedure: 20-50 μl aliquots of supernatant/column fractions were incubated with 1 μCi of [^3 H]-retinol and 20 μl of high speed supernatant from sonicated Sf-9 cells in 200 μl assay buffer (20 mM Tris.Cl pH 7.5, 150 mM NaCl, I mM MgCI2) for 15-60 minutes at 24° C. […] Samples were delipidated and [^3 H]-AR production quantified by a liquid scintillation radiomatic detector in series with HPLC gradient elution (20 mM Tris pH 7.4/methanol/chloroform) from a C-18 Reverse Phase 201TP54 column (Vydac, Separations Group, Hesperia, Calif.) as described by McClean et al., Clin. Chem., 28:693-96 (1982) and Derguini et al., Angew. Che. Int. Ed. Engl., 33:1839-41 (1994), which are hereby incorporated by reference.
Kinetic studies were performed with native retinol dehydratase (0.1 μg/assay) and ^3 H-retinol in the presence of constant substrate carrier protein concentrations, either delipidated BSA or recombinant cellular retinol binding protein ("CRBP"). The initial rate of AR synthesis at different substrate concentrations was determined by radiomatic detection of ^3 H-AR after HPLC separation.
Carrier protein for retinol (delipidated bovine serum albumin or recombinant human CRBP) was added to reduce nonspecific binding and micelle formation.

B1: EGF: epidermal growth factor, purchased (protein, UniProt P01133 23-1207, looked up)
Pro-epidermal growth factor: PQHWSCPEGTLAGNGNSTCVGPAPFLIFSHGNSIFRIDTEGTNYEQLVVDAGVSVIMDFHYNEKRIYWVDLERQLLQRVFLNGSRQERVCNIEKNVSGMAINWINEEVIWSNQQEGIITVTDMKGNNSHILLSALKYPANVAVDPVERFIFWSSEVAGSLYRADLDGVGVKALLETSEKITAVSLDVLDKRLFWIQYNREGSNSLICSCDYDGGSVHISKHPTQHNLFAMSLFGDRIFYSTWKMKTIWIANKHTGKDMVRINLHSSFVPLGELKVVHPLAQPKAEDDTWEPEQKLCKLRKGNCSSTVCGQDLQSHLCMCAEGYALSRDRKYCEDVNECAFWNHGCTLGCKNTPGSYYCTCPVGFVLLPDGKRCHQLVSCPRNVSECSHDCVLTSEGPLCFCPEGSVLERDGKTCSGCSSPDNGGCSQLCVPLSPVSWECDCFPGYDLQLDEKSCAASGPQPFLLFANSQDIRHMHFDGTDYGTLLSQQMGMVYALDHDPVENKIYFAHTALKWIERANMDGSQRERLIEEGVDVPEGLAVDWIGRRFYWTDRGKSLIGRSDLNGKRSKIITKENISQPRGIAVHPMAKRLFWTDTGINPRIESSSLQGLGRLVIASSDLIWPSGITIDFLTDKLYWCDAKQSVIEMANLDGSKRRRLTQNDVGHPFAVAVFEDYVWFSDWAMPSVMRVNKRTGKDRVRLQGSMLKPSSLVVVHPLAKPGADPCLYQNGGCEHICKKRLGTAWCSCREGFMKASDGKTCLALDGHQLLAGGEVDLKNQVTPLDILSKTRVSEDNITESQHMLVAEIMVSDQDDCAPVGCSMYARCISEGEDATCQCLKGFAGDGKLCSDIDECEMGVPVCPPASSKCINTEGGYVCRCSEGYQGDGIHCLDIDECQLGEHSCGENASCTNTEGGYTCMCAGRLSEPGLICPDSTPPPHLREDDHHYSVRNSDSECPLSHDGYCLHDGVCMYIEALDKYACNCVVGYIGERCQYRDLKWWELRHAGHGQQQKVIVVAVCVVVLVMLLLLSLWGAHYYRTQKLLSKNPKNPYEESSRDVRSRRPADTEDGMSSCPQPWFVVIKEHQDLKNGGQPVAGEDGQAADGSMQPTSWRQEPQLCGMGTEQGCWIPVSSDKGSCPQVMERSFHMPSYGTQTLEGGVEKPHSLLSANPLWQQRALDPPHQMELTQ
modifications: Pro-epidermal growth factor
notes: epidermal growth factor, purchased
On to B1, for which, in data set [1] (cells deprived of serum for 3 or 4 days), the “activation of growth arrested cells (thymidine incorporation over 24 hours)” value is listed as “had no effect”. Further, the “entry of treated cells into the S phase” value in data set [1] (data not shown) was “did not enter the S phase”. Moreover, the “activation of resting cells” value in data set [1] (≤500 ng/ml) is recorded as “unable to activate”.

B2: Recombinant retinol dehydratase: 352 amino acid, 41.5 kDa enzyme of Sf-21 cells, expressed in bacteria with HisTag, SEQ. ID. No. 2 (protein)
chain: MEKQQDLPFPYEFRELNPEDKLVKANLGAFPTTYVKLGPKGYMVYRPYLKDAANIYNMPLRPTDVFVASYQRSGTTMTQELVWLIENDLNFEAAKTYMSLRYIYLDGFMIYDPEKQEEYNDILPNPENLDMERYLGLLEYFSRPGSSLLAAVPPTEKRFVKTHLPLSLMPPNMLDTVKMVYLARDPRDVAVSSFHHARLLYLLNKQSNFKDFWEMFHRGLYTLTPYFEHVKEAWAKRHDPNMLFLFYEDYLKDLPGCIARIADFLGKKLSEEQIQRLCEHLNFEKFKNNGAVNMEDYREIGILADGEHFIRKGKAGCWRDYFDEEMTKQAEKWIKDNLKDTDLRYPNMEL
modifications: His tag
B2: in data set [2] (n=3), the “range of binding sites” value is listed as 0.06-0.08. Further, the results for the “number of (high affinity) binding sites per molecule” value in data set [2] and in data set [2] (listed as recombinant enzyme) were 8% and 7%, respectively. For the same molecule, the binding sites in data set [2] (titration curves, n=3) was determined as 0.07. Moreover, the “Vmax as compared to the native enzyme purified from Sf-21” value in data set [3] was determined as 10%.

The record behind these values is patent publication US5928931A, “Isolation, purification and cloning of retinol dehydratase” (Cornell Research Foundation, Inc., priority 1997, dated 1999).
